Measurements published in patent US8357523B2, “Beta-glucosidase variant enzymes and related polynucleotides” (Codexis, Inc., priority 2009, dated 2013).

test: High throughput cellobiose assay: fold improvement in cellobiase activity of CelA variants over a control enzyme (Tables 2A-2D, 3, 5, 6, 7); type: biochemical; conditions: 3.3 g/l cellobiose, 55° C. and pH 6.0

Molecule | Fold improvement over Control Variant No. 5 from Table 2A
141 (protein) STAIAQEGAAPAAILHPEKWPRPATQRLIDPAVEKRVDALLKQLSVEEKVGQVIQGDIGTITPEDLRKYPLGSILAGGNSGPNGDDRAPPKEWLDLADAFYRVSLEKRPGHTPIPVLFGIDAVHGHGNIGSATIFPHNIALGMTRDPELLRRIGEVTAVEMAATGIDWTFAPALSVVRDDRWGRTYEGFSEDPEIVAAYSAAIVEGVQGKYGSKDFMAVGRIVACAKHFLADGGTDQGRDQGDARISEDELIRIHNAGYPPAIDAGVLTVMASFSSWQGIKHHGHKQLLTDVLKGQMGFNGFIVGDWNAHDQVPGCTKFNCPTSLIAGLDMYMAADSWKQLYENTLAQVKDGTIPMARLDDAVRRILRVKVLAGLFEKPAPKDRPGLPGLETLGSPEHRAVGREAVRKSLVLLKNDKGTLPLSPKARVLVAGDGADNIGKQSGGWTISWQGTGNRNDEFPGATSILGGIRDAVADAGGSVEFDVAGQYKTKPDVAIVVFGEEPYAEFQGDVETLEYQPDQKQDLALLKKLKDQGIPVVAVFLSGRPMWVNPELNASDAFVAAWLPGTEGGGVADVLFTDKAGKVQHDFAGKLSYSWPRTAAQTTVNRGDADYNPLFAYGYGLTYKDKSKVGTLPEESGVPAEARQNAGIYFRAGALRLPGRFL | +++ (+++ = 6 to 13 fold improvement over control Variant No. 2)
143 (protein) STAIAQEGAAPAAILHPEKWPRPATQRLIDPAVEKRVDALLKQLSVEEKVGQVIQGDIGTITPEDLRKYPLGSILAGGNSGPNGDDRAPPKEWLDLADAFYRVSLEKRPGHTPIPVLFGIDAVHGHGNIGSATIFPHNIALGMTRDPELLRRIGEVTAVEMAATGIDWTFAPALSVVRDDRWGRTYEGFSEDPEIVASYSAAIVEGVQGKYGSKDFMAPGRIVACAKHFLADGGTDQGRDQGDARISEDELIRIHNAGYPPAIDAGVLTVMASFSSWQGIKHHGHKQLLTDVLKGQMGFNGFIVGDWNAHDQVPGCTKFNCPTSLIAGLDMYMAADSWKQLYENTLAQVKDGTIPMARLDDAVRRILRVKVLAGLFEKPAPKDRPGLPGLETLGSPEHRAVGREAVRKSLVLLKNDKGTLPLSPKARVLVAGDGADNIGKQSGGWTISWQGTGNRNDEFPGATSILGGIRDAVADAGGSVEFDVAGQYKTKPDVAIVVFGEEPYAEFQGDVETLEYQPDQKQDLALLKKLKDQGIPVVAVFLSGRPMWVNPELNASDAFVAAWLPGTEGGGVADVLFTDKAGKVQHDFAGKLSYSWPRTAAQTTVNRGDADYNPLFAYGYGLTYKDKSKVGTLPEESGVPAEARQNAGIYFRAGALRLPGRFL | +++ (+++ = 6 to 13 fold improvement over control Variant No. 2)
144 (protein) STAIAQEGAAPAAILHPEKWPRPATQRLIDPAVEKRVDALLKQLSVEEKVGQVIQGDIGTITPEDLRKYPLGSILAGGNSGPNGDDRAPPKEWLDLADAFYRVSLEKRPGHTPIPVLFGIDAVHGHGKIGSATIFPHNIALGATRDPELLRRIGEVTAVEMTATGIDWTFAPALSVVRDDRWGRTYEGFSEDPEIVASYSAAIVEGVQGKYGSKDFMAVGRIVACAKHFLADGGTDQGRDQGDARISEDELIRIHNAGYPPAIDAGVLTVMASFSSWQGIKHHGHKQLLTDVLKGQMGFNGFIVGDWNAHDQVPGCTKFNCPTSLIAGLDMYMAADSWKQLYENTLAQVKDGTIPMARLDDAVRRILRVKVLAGLFEKPAPKDRPGLPGLETLGSPEHRAVGREAVRKSLVLLKNDKGTLPLSPKARVLVAGDGADNIGKQSGGWTISWQGTGNRNDEFPGATSILGGIRDAVADAGGSVEFDVAGQYKTKPDVAIVVFGEEPYAEFQGDVETLEYQPDQKQDLALLKKLKDQGIPVVAVFLSGRPMWVNPELNASDAFVAAWLPGTEGGGVADVLFTDKAGKVQHDFAGKLSYSWPRTAAQTTVNRGDADYNPLFAYGYGLTYKDKSKVGTLPEESGVPAEARQNAGIYFRAGALRLPGRFL | +++ (+++ = 6 to 13 fold improvement over control Variant No. 2)
147 (protein) STAIAQEGAAPAAILHPEKWPRPATQRLIDPAVEKRVDALLKQLSVEEKVGQVIQGDIGTITPEDLRKYPLGSILAGGDSGPNGDDRAPPKEWLDLADAFYRVSLEKRPGHTPIPVLFGIDAVHGHGKIGSATIFPHNIALGATRDPELLRRIGEVTAVEMAATGIDWTFAPCLSVVRDDRWGRTYEGFSEDPEIVASYSAAIVEGVQGKYGSKDFMAPGRSVASAKHFLADGGTDQGRDQGDARISEDELIRIHNAGYPPAIDAGVLTVMASFSSWQGIKHHGHKQLLTDVLKGQMGFNGFIVGDWNAHDQVPGCTKFNCPTSLIAGLDMYMAADSWKQLYENTLAQVKDGTIPMARLDDAVRRILRVKVLAGLFEKPAPKDRPGLPGLETLGSPEHRAVGREAVRKSLVLLKNDKGTLPLSPKARVLVAGDGADNIGKQSGGWTISWQGTGNRNDEFPGATSILGGIRDAVADAGGSVEFDVAGQYKTKPDVAIVVFGEEPYAEFQGDVETLEYQPDQKQDLALLKKLKDQGIPVVAVFLSGRPMWVNPELNASDAFVAAWLPGTEGGGVADVLFTDKAGKVQHDFAGKLSYSWPRTAAQTTVNRGDADYNPLFAYGYGLTYKDKSKVGTLPEESGVPAEARQNAGIYFRAGALRLPGRFL | +++ (+++ = 6 to 13 fold improvement over control Variant No. 2)
145 (protein) STAIAQEGAAPAAILHPEKWPRPATQRLIDPAVEKRVDALLKQLSVEEKVGQVIQGDIGTITPEDLRKYPLGSILAGGDSGPNGDDRAPPKEWLDLADAFYRVSLEKRPGHTPIPVLFGIDAVHGHGNIGSATIFPHNIALGATRSPELLRRIGEVTAEEMAATGIDWTFAPALSVVRDDRWGRTYEGFSEDPEIVASYSAAIVEGVQGKYGSKDFMAPGRIVACAKHFLADGGTDQGRDQGDARISEDELIRIHNAGYPPAIDAGVLTVMASFSSWQGIKHHGHKQLLTDVLKGQMGFNGFIVGDWNAHDQVPGCTKFNCPTSLIAGLDMYMAADSWKQLYENTLAQVKDGTIPMARLDDAVRRILRVKVLAGLFEKPAPKDRPGLPGLETLGSPEHRAVGREAVRKSLVLLKNDKGTLPLSPKARVLVAGDGADNIGKQSGGWTISWQGTGNRNDEFPGATSILGGIRDAVADAGGSVEFDVAGQYKTKPDVAIVVFGEEPYAEFQGDVETLEYQPDQKQDLALLKKLKDQGIPVVAVFLSGRPMWVNPELNASDAFVAAWLPGTEGGGVADVLFTDKAGKVQHDFAGKLSYSWPRTAAQTTVNRGDADYNPLFAYGYGLTYKDKSKVGTLPEESGVPAEARQNAGIYFRAGALRLPGRFL | +++ (+++ = 6 to 13 fold improvement over control Variant No. 2)
148 (protein) STAIAQEGAAPAAILHPEKWPRPATQRLIDPAVEKRVDALLKQLSVEEKVGQVIQGDIGTITPEDLRKYPLGSILAGGDSGPNGDDRAPPKEWLDLADAFYRVSLEKRPGHTPIPVLFGIDAVHGHGNIGSATIFPHNIALGATRDPELLRRIGEVTAEEMAATGIDWTFAPALSVVRDDRWGRTYEGFSEDPEIVASYSAAIVEGVQGKFGSKDFMAPGRIVACAKHFLADGGTDQGRDQGDARISEDELIRIHNAGYPPAIDAGVLTVMASFSSWQGIKHHGHKQLLTDVLKGQMGFNGFIVGDWNAHDQVPGCTKFNCPTSLIAGLDMYMAADSWKQLYENTLAQVKDGTIPMARLDDAVRRILRVKVLAGLFEKPAPKDRPGLPGLETLGSPEHRAVGREAVRKSLVLLKNDKGTLPLSPKARVLVAGDGADNIGKQSGGWTISWQGTGNRNDEFPGATSILGGIRDAVADAGGSVEFDVAGQYKTKPDVAIVVFGEEPYAEFQGDVETLEYQPDQKQDLALLKKLKDQGIPVVAVFLSGRPMWVNPELNASDAFVAAWLPGTEGGGVADVLFTDKAGKVQHDFAGKLSYSWPRTAAQTTVNRGDADYNPLFAYGYGLTYKDKSKVGTLPEESGVPAEARQNAGIYFRAGALRLPGRFL | +++ (+++ = 6 to 13 fold improvement over control Variant No. 2)
142 (protein) STAIAQEGAAPAAILHPEKWPRPATQRLIDPAVEKRVDALLKQLSVEEKVGQVIQGDIGTITPEDLRKYPLGSILAGGDSGPNGDDRAPPKEWLDLADAFYRVSLEKRPGHTPIPVLFGIDAVHGHGKIGSATIFPHNIALGATRDPELLRRIGEVTAVEMAATGIDWTFAPALSVVRDDRWGRTYEGFSEDPEIVAAYSPAIVEGVQGKFGSKDFMAVGRIVASAKHFLADGGTDQGRDQGDARISEDELIRIHNAGYPPAIDAGVLTVMASFSSWQGIKHHGHKQLLTDVLKGQMGFNGFIVGDWNAHDQVPGCTKFNCPTSLIAGLDMYMAADSWKQLYENTLAQVKDGTIPMARLDDAVRRILRVKVLAGLFEKPAPKDRPGLPGLETLGSPEHRAVGREAVRKSLVLLKNDKGTLPLSPKARVLVAGDGADNIGKQSGGWTISWQGTGNRNDEFPGATSILGGIRDAVADAGGSVEFDVAGQYKTRPDVAIVVFGEEPYAEFQGDVETLEYQPDQKQDLALLKKLKDQGIPVVAVFLSGRPMWVNPELNASDAFVAAWLPGTEGGGVADVLFTDKAGKVQHDFAGKLSYSWPRTAAQTTVNRGDADYNPLFAYGYGLTYKDKSKVGTLPEESGVPAEARQNAGIYFRAGALRLPGRFL | +++ (+++ = 6 to 13 fold improvement over control Variant No. 2)
146 (protein) STAIAQEGAAPAAILHPEKWPRPATQRLIDPAVEKRVDALLKQLSVEEKVGQVIQGDIGTITPEDLRKYPLGSILAGGDSGPNGDDRAPPKEWLDLADAFYRVSLEKRPGHTPIPVLFGIDAVHGHGNIGSATIFPHNIALGMTRDPELLRRIGEVTAQEMAATGIDWTFAPALSVVRDDRWGRTYEGFSEDPEIVAAYSPAIVEGVQGKFGSKDFMAPGRIVACAKHFLADGGTDQGRDQGDARISEDELIRIHNAGYPPAIDAGVLTVMASFSSWQGIKHHGHKQLLTDVLKGQMGFNGFIVGDWNAHDQVPGCTKFNCPTSLIAGLDMYMAADSWKQLYENTLAQVKDGTIPMARLDDAVRRILRVKVLAGLFERPAPKDRPGLPGLETLGSPEHRAVGREAVRKSLVLLKNDKGTLPLSPKARVLVAGDGADNIGKQSGGWTISWQGTGNRNDEFPGATSILGGIRDAVADAGGSVEFDVAGQYKTKPDVAIVVFGEEPYAEFQGDVETLEYQPDQKQDLALLKKLKDQGIPVVAVFLSGRPMWVNPELNASDAFVAAWLPGTEGGGVADVLFTDKAGKVQHDFAGKLSYSWPRTAAQTTVNRGDADYNPLFAYGYGLTYKDKSKVGTLPEESGVPAEARQNAGIYFRAGALRLPGRFL | +++ (+++ = 6 to 13 fold improvement over control Variant No. 2)
